Results published in patent US20250263502A1 (published 2025).
Where a chain is given by its changes, count along the chain named.

T1: ectodomain of human CD98hc (human, UniProt P08195 105-529)
T1 chain: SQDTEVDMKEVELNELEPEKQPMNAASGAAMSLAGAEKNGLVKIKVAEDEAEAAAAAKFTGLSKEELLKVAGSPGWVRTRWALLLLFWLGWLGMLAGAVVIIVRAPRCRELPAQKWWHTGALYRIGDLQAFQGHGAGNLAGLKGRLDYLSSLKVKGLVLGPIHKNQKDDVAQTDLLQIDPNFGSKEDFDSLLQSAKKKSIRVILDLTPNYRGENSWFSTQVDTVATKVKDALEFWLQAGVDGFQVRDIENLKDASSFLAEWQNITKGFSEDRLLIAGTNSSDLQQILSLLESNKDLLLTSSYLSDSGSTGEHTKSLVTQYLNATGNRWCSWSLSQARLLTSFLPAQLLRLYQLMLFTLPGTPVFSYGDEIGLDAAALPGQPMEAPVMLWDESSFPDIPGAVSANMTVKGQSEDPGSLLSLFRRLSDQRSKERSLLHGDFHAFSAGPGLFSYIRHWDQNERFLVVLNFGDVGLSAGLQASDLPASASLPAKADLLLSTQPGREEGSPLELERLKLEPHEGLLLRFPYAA

B1: F12 variant F12-E03 as VNAR-hFc fusion (Fc fusion)
chain: ARVDQTPQTITKEEGESLTINCVLRVHGRALASTSWYRKKSGSTREETISKGGRYVETVNSGSKSFSLRINDLTVEDSGTYRCNVNGLSSGDQEGVKKIDVYGDGTAVTVNA
notes: not shown: human IgG1 Fc (hinge, CH2 and CH3) as encoded by vector pFUSE-hIgG1e3-Fc2
B2: F12 variant F12-B12 as VNAR-hFc fusion (Fc fusion)
chain: B1 chain with Q93I, I99L
notes: as for B1
B3: F12 variant F12-G04 as VNAR-hFc fusion (Fc fusion)
chain: B1 chain with Q93I
notes: as for B1
B4: F12 variant F12-A01 as VNAR-hFc fusion (Fc fusion)
chain: B1 chain with Q93K
notes: as for B1
B5: F12 variant F12-C01 as VNAR-hFc fusion (Fc fusion)
chain: B1 chain with N86Y, Q93S
notes: as for B1
B6: F12 variant F12-H04 as VNAR-hFc fusion (Fc fusion)
chain: B1 chain with N86Y, S89M, S90Q, Q93I
notes: as for B1
B7: F12 variant F12-G02 as VNAR-hFc fusion (Fc fusion)
chain: B1 chain with N86Y, S89M, S90N, G91V, Q93I
notes: as for B1
B8: VNAR clone G3 fused N-terminally to human IgG1 Fc (VNAR-hFc) (Fc fusion)
chain: ARVDQTPQTITKETGESLTINCVLRDNNCALSTTYWYRKKSGSTNEENISKGGRYVETVNSGSKSFSLRINDLTVEDSGTYRCKVHFFPSFCNSTSIRSVDVYGGGTVVTVNA
notes: Bivalent VNAR-Fc from Expi293 cells; not shown: human IgG1 Fc (hinge, CH2 and CH3) as encoded by vector pFUSE-hIgG1e3-Fc2
B9: VNAR clone H6 fused N-terminally to human IgG1 Fc (VNAR-hFc) (Fc fusion)
chain: ARVDQTPQTITKEEGESLTINCVLRTHSNALASTSWYRKKSGSTREETISKGGRYVETVNSGSKSFSLRINDLTVEDSGTYRCNVYAFLEIQPNIYHEFDVYGDGTAVTVNA
notes: as for B8
B10: VNAR clone D1 fused N-terminally to human IgG1 Fc (VNAR-hFc) (Fc fusion)
chain: ARVDQTPQTITKEEGESLTINCVLRHNYSALASTSWYRKKSGSTREETISKGGRYVETVNSGSKSFSLRINDLTVEDSGTYRCNVYGISFIEEKIRYDFDVYGDGTAVTVNA
notes: Bivalent VNAR-Fc from Expi293 cells; also called D1-hFc; not shown: human IgG1 Fc (hinge, CH2 and CH3) as encoded by vector pFUSE-hIgG1e3-Fc2
B11: VNAR clone H7 fused N-terminally to human IgG1 Fc (VNAR-hFc) (Fc fusion)
chain: ARVDQTPQTITKEEGESLTINCVLRYNNPALASTSWYRKKSGSTREETISKGGRYVETVNSGSKSFSLRINDLTVEDSGTYRCNVYFFPSFLVDKLQSHDVYGDGTAVTVNA
notes: as for B8
B12: VNAR clone F1 fused N-terminally to human IgG1 Fc (VNAR-hFc) (Fc fusion)
chain: B1 chain with N86Y, Q93I
notes: Bivalent VNAR-Fc from Expi293 cells; also called F1-hFc; not shown: human IgG1 Fc (hinge, CH2 and CH3) as encoded by vector pFUSE-hIgG1e3-Fc2
B13: VNAR clone F12 fused N-terminally to human IgG1 Fc (VNAR-hFc) (Fc fusion)
chain: B1 chain with N86Y, S90F, Q93I
notes: Bivalent VNAR-Fc from Expi293 cells; also called F12-hFc; VNAR F12-hFc; not shown: human IgG1 Fc (hinge, CH2 and CH3) as encoded by vector pFUSE-hIgG1e3-Fc2
B14: VNAR clone E12 fused N-terminally to human IgG1 Fc (VNAR-hFc) (Fc fusion)
chain: ARVDQTPQTITKEEGESLTINCVLRTQDPALASTSWYRKKSGSTREETISKGGRYVETVNSGSKSFSLRINDLTVEDSGTYRCNVYFLLAPTKTKLQGIDVYGDGTAVTVNA
notes: as for B8

Target: T1, ectodomain of human CD98hc
Assay: ELISA, VNAR-hFc titrated on coated human CD98hc
In the case of B1, the EC50 is reported as 40 nM. With B2 the EC50 was 10 nM. B3 was tested, and the EC50 was 30 nM. For B4, the EC50 was 10 nM. In the case of B5, the EC50 is reported as 30 nM. Binder B6 has an EC50 of 20 nM. With B7 the EC50 was 10 nM.

Target: T1, ectodomain of human CD98hc
Assay: ELISA, purified VNAR-Fc titrated on coated CD98hc
B8 was tested, and the EC50 was 107 nM. B9 showed an EC50 of 6 nM. B10 was tested, and the EC50 was 28 nM. Work on B11 yielded an EC50 of 6 nM. Binder B12 has an EC50 of 3 nM. B13 showed an EC50 of 12 nM. B14 gave an EC50 of 56 nM.

Target: T1, ectodomain of human CD98hc
Assay: ELISA, expression medium of VNAR-hFc on coated protein
B8 was tested, and the “Binding [relative units]” value was 1.48 relative units. For B9, the “Binding [relative units]” value was 3.31 relative units. With B10 the “Binding [relative units]” value was 3.5 relative units. For B11, the “Binding [relative units]” value was 3.93 relative units. In the case of B12, the “Binding [relative units]” value is reported as 3.76 relative units. In the case of B13, the “Binding [relative units]” value is reported as 3.99 relative units. B14 was tested, and the “Binding [relative units]” value was 2.19 relative units.
